We go through two molecules from publication PMC3081289.

The target of assay [1] is T1, Vascular Endothelial Growth Factor (VEGF), receptor binding domain, VEGF_(8–109).
T1 chain: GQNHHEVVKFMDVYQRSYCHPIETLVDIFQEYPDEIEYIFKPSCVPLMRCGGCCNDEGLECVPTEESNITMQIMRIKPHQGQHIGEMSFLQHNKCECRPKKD
Description: calculated from ΔG (SPR) and ΔH (ITC). As to conditions: chain shown with the change; 30°C, phosphate buffer (pH 7.4); parent: est. -4.4 kcal/mol; read off a plot.

Assay [2] addresses T1, Vascular Endothelial Growth Factor …. Description: SPR. As to conditions: chain shown with the change; for response (Response Units): 0.5 µM Fab, parent: est. 690, read off a plot.
Assay [3] shares this target. The experiment in a line: SPR (ΔG derived from KD). As to conditions: chain shown with the change; 30°C, phosphate buffer (pH 7.4); parent: est. -12 kcal/mol; read off a plot.
Setting [4] is: 30°C, Fab over immobilized antigen.

Usually Kd stands for a measure of binding affinity in units of concentration. The koff is a measure of how fast the partners let go of each other.

B1: bH1-44 Fab (affinity-improved variant of bH1) HC:R50A; HC:R58A (protein)
chain 1: EVQLVESGGGLVQPGGSLRLSCAASGFNISGTYIHWVRQAPGKGLEWVAAIYPSEGYTAYADSVKGRFTISADTSKNTAYLQMNSLRAEDTAVYYCSRWVGVGFYAMDYWGQGTLVTVSS
chain 2: DIQMTQSPSSLSASVGDRVTITCRASQNIAKTISGYVAWYQQKPGKAPKLLIYWGSFLYSGVPSRFSGSGSGTDFTLTISSLQPEDFATYYCQQHYSSPPTFGQGTKVEIK
B1: in assay [1], the other: -TΔS is -3.7 kcal/mol. The response (Response Units) in assay [2] amounted to 600. In addition, in assay [2] (setting [4]), the dissociation constant (Kd) came out at 3 nM and the off-rate constant (koff) is 10 10^-4 s-1. The dG in assay [3] is -12 kcal/mol.

B2: bH1-44 Fab (affinity-improved variant of bH1) LC:Y32A (protein)
chain 1: EVQLVESGGGLVQPGGSLRLSCAASGFNISGTYIHWVRQAPGKGLEWVARIYPSEGYTRYADSVKGRFTISADTSKNTAYLQMNSLRAEDTAVYYCSRWVGVGFYAMDYWGQGTLVTVSS
chain 2: DIQMTQSPSSLSASVGDRVTITCRASQNIAKTISGAVAWYQQKPGKAPKLLIYWGSFLYSGVPSRFSGSGSGTDFTLTISSLQPEDFATYYCQQHYSSPPTFGQGTKVEIK
On to B2, for which the response (Response Units) in assay [2] stood at 60.
